# Data published in patent publication US20170037117A1, “COMPOSITIONS AND METHODS FOR TREATING METABOLIC DISORDERS” (Salk Institute for Biological Studies, priority 2014, published 2017).
# B1: M25: G1 variant: L1 R28N; HC-FW3 L99T A100V (antibody, V domains shown)
# VH: EVQLVESGGGLVQPGGSLRLSCAASGFTFSNYWISWVRQAPGKGLEWVAEIRSESDASATHYAEAVKGRFTISRDNAKNSLYLQMNSLRAEDTAVYYCTVYFDYGLAIQNYWGQGTLVTVSS
# VL: EIVLTQSPATLSLSPGERATLSCKASKNVTTYVSWYQQKPGQAPRLLIYGASNRYLGIPARFSGSGSGTDFTLTISSLEPEDFAVYYCSQSYNYPYTFGQGTKLEIK
# Biological target: T1, human α-CGRP (Homo sapiens, UniProt P06881)
# T1 construct: 1-37 (WT); purchased GenScript Corporation or Global Peptide Services
# T1 sequence (P06881 83-119 limits assumed): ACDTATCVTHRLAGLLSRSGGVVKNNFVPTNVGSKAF
# Test: Biacore affinity of G1 Fab and variants to human α-CGRP
# Assay type: binding
# Conditions: 37° C.; Fab fragments; screening mode except underlined values (G1 high-resolution mode)
# Method: Biacore assay for affinity determination. […] All Biacore assays were conducted in HBS-EP running buffer (10 mM HEPES pH 7.4, 150 mM NaCl, 3 mM EDTA, 0.005% v/v polysorbate P20). CGRP surfaces were prepared by diluting the N-biotinylated CGRP to a concentration of less than 0.001 mg/mL into HBS-EP buffer and injecting it across the SA sensor chip using variable contact times. Low capacity surfaces, corresponding to capture levels <50 response units (RU) were used for high-resolution kinetic studies, whereas high capacity surfaces (about 800 RU of captured CGRP) were used for concentration studies, screening, and solution affinity determinations. […] Samples were typically injected for 1 minute at 100 μL/min and dissociation times of at least 10 minutes were allowed. After each binding cycle, surfaces were regenerated with 25 mM NaOH in 25% v/v ethanol, which was tolerated over hundreds of cycles. […]
# High-resolution analysis of binding interactions with extremely slow offrates. […] The association rate constant (kon) was determined by injecting a 2-fold titration series (in duplicate) spanning 550 nM-1 nM for 30 sec at 100 uL/min and allowing only a 30 sec dissociation phase. The dissociation rate constant (koff) was determined by injecting three concentrations (high, medium, and low) of the same titration series in duplicate for 30 sec and allowing a 2-hour dissociation phase. […]
molecule,measurement,value
B1,α-human koff,0.00014 s⁻¹
